From patent US20190343964A1 (SHIZUOKA PERFECTURE, published 2019)

T1: B7-H4 expressed on the membrane surface of cancer cells (human, UniProt Q7Z7D3 25-282)
T1 sequence (looked up): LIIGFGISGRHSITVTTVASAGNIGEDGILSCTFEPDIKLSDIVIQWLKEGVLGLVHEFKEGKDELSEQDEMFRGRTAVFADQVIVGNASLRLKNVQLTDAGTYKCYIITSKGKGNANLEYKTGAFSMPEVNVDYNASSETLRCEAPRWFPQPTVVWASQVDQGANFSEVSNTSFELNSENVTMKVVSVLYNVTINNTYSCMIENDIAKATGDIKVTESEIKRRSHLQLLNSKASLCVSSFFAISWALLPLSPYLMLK

T2: soluble human B7-H4 recombinant protein (human, UniProt Q7Z7D3 25-259)
T2 construct: also called a free form of B7-H4
T2 sequence: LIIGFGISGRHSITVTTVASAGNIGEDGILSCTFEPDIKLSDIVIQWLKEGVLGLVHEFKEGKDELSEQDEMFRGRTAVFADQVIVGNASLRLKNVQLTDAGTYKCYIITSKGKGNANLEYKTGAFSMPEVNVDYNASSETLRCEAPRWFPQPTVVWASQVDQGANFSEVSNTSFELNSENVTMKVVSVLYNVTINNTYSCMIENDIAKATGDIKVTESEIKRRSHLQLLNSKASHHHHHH

B1: Fab-scFv according to the present invention (bispecific antibody)
heavy: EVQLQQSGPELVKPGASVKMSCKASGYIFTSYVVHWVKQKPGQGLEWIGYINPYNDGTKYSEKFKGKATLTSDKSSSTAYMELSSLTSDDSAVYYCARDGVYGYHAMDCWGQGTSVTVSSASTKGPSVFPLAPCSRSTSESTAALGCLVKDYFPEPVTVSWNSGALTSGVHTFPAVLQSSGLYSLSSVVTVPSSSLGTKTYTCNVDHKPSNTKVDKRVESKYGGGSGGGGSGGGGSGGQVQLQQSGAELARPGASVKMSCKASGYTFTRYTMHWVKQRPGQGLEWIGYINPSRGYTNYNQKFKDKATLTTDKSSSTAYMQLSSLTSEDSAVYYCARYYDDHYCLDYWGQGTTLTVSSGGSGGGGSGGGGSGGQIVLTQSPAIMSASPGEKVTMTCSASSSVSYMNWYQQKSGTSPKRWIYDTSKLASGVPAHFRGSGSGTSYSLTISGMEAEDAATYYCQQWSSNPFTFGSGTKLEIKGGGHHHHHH
light: NIQMTQSPSSLAVSAGEKVTMSCKSSHAVLYSSNQKNYLAWYQQKPGQSPKLLIYWASTRDSGVPDRFTGGGSGTDFTLTITNIQPEDLAVYYCHQYLSSWTFGGGTKVEIKRTVAAPSVFIFPPSDEQLKSGTASVVCLLNNFYPREAKVQWKVDNALQSGNSQESVTGQDSKDSTYSLSSTLALSKADYEKHKVYACEVTHQGLSSPVTKSFNRGEC
B2: H4.140 (antibody, V domains shown)
VH: EVQLVESGGDLVKPGGSLKLSCAASGFTFSTYGMSWVRQTPDKRLEWVATISSGGNYTYYPDSVKGRFTISRDNAKNTLYLQMSSLKSEDTAMYYCARPYGNHFDYWG
VL: DIQMTQSPASLAASVGETVTITCRASENIYYSLAWYQQKQGKSPQLLIYNANSLEDGVPSRFSGSGSGTQYSMKINSMQPEDTATYFCKQAYDVPYTFG
notes: Mouse hybridoma monoclonal antibody; also called anti-B7-H4 monoclonal antibody produced from hybridoma clone #140
B3: H4.209 (antibody, V domains shown)
VH: EVKLVESGGGLVKPGGSLKLSCAASGFTFSNYALSWVRQTPEKRLEWVASISGGGSTYYPDSVKGRFIISRDNARNILYLQMSSLRSEDTAMYYCARGPSYDDYYFDVWG
VL: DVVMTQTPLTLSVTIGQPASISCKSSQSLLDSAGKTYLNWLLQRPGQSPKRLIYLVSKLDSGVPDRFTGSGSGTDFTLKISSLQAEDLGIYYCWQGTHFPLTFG
notes: Mouse hybridoma monoclonal antibody; also called anti-B7-H4 monoclonal antibody produced from hybridoma clone #209
B4: H4.018 (antibody)
chain 1: EVKLVESGGGLVKPGGSLKLSCAASGFTFSSYAMSWVRQTPEKRLEWVATISSGGNYTYYPDSVKGRFTISRDNAKNTLYLQMSSLRSEDTAMYYCARHRYDNNYDYYAMD
chain 2: NIQMTQSPSSLAVSAGEKVTMSCKSSHAVLYSSNQKNYLAWYQQKPGQSPKLLIYWASTRDSGVPDRFTGGGSGTDFTLTITNIQPEDLAVYYCHQYLSSWTFGGGTKVEIK
B5: H4.051 (antibody, V domains shown)
VH: EVQLQQSGAELVRSGASVKLSCTASGFNIKDFYVHWVKQRPEQGLEWIGWIDPAHVDTEYAPKFQGKTTMTADTSSNTAYLQLSSLTSEDSAVYYCNALLPRTMDYWG
VL: DVVLTQTPLSLPVNVGDQASISCKSTKSLLNSDGFTYLDWYLQKPGQSPQLLIYLVSNRFSGVPDRFSGSGSGTDFTLKISRVEAEDLGVYYCFQSNYLPYTFG
notes: Mouse hybridoma monoclonal antibody; also called anti-B7-H4 monoclonal antibody produced from hybridoma clone #51
B6: H4.121 (antibody, V domains shown)
VH: QVQLQQSGAELMKPGASVKISCKATGYTFSSYWIEWVKQRPGHGLEWIGEILHGSDSTNYNENFKGKATFTADTSSNTAYMRLSSLTSEDSAVYYCASHYYGSSPFAYWG
VL: not shown
notes: Mouse hybridoma monoclonal antibody; also called anti-B7-H4 monoclonal antibody produced from hybridoma clone #121

Molecular target: T1, B7-H4 expressed on the membrane surface …
Test: cell-based or functional assay

Row | Binder | 50% maximum effective concentration (EC50) of cytotoxicity (% Lysis) to MDA-MB-468 cells, LDH release, with human peripheral blood mononuclear cells, 16 hours [µg/mL]
1 | B1 | 0.013

Molecular target: T2, soluble human B7-H4 recombinant protein
Test: ELISA, hybridoma culture supernatant diluted 2 times on immobilized free form of B7-H4
Procedure: Specifically, the free form of B7-H4 was added to a 96 well Immobilizer Amino Plate (Thermo Fisher Scientific) and incubated at room temperature for 2 hours to immobilize the free form of B7-H4 on the plate surface. Simultaneously, wells with no immobilization of the free form of B7-H4 were prepared as negative control. After incubation, the antigen that was not immobilized was removed and the wells were filled with PBS containing 3% BSA and incubated at 4° C. overnight. In this step, nonspecific binding capacity to the plate surface was blocked to produce a plate for ELISA.
The culture supernatant of each of the plurality of hybridoma lines obtained in Example 2 was 2-times diluted with PBS containing 0.05% Tween20 to prepare a supernatant sample. The buffer was removed from the wells of the aforementioned plate for ELISA and then the supernatant sample was added and incubated at room temperature for 2 hours. The plate was washed to remove the unbound antibody and then a horseradish peroxidase (HRP) labeled anti-mouse immunoglobulin antibody (GE Healthcare) was added and incubated for 1 hour. The wells were washed, then a peroxidase substrate (BD Biosciences) was added and incubated for 30 minutes, and a sulfuric acid solution at a concentration of 0.1 M or higher was added to stop the color development. Whether an antibody that recognizes B7-H4 in a supernatant sample was contained was examined by measuring the absorption of the solution in each well at a wavelength of 450 nm.

Row | Binder | OD 450 nm [OD 450 nm]
2 | B2 | 1.06
3 | B3 | 1.93
4 | B4 | 1.96
5 | B5 | 1.96
6 | B6 | 2.02
